# Test results reported in the PETadex activity labels (doi:10.1016/j.bbrc.2024.150833).
# B1: unnamed (protein)
# chain: MTDVEIALSTGRVKGTDLGDVVRYYGIPYAEDPVGDLRFAAPVRREPWPGVRDATRPAATAQRLRFDPDPAIPEPIVAGTDILHVDVWAPTEGAGHPVLVWIHGGGWESGSSHQPWFVGTAFARAGIVVVSVGYRLGVEGFTAFPDAPDNRGVRDWIMALEWVRDEIAAFGGDPGQVTVSGQSAGGGAVLCLLASPLAAGLFHRGIASSPAVLRSPAAQAPKGTTAAGLAAGGRGAVDEFHRRLRKDNPFLMPFRPTVGDDTVPVPPLEGIGSGPGLDLPLLIGSTATEFEGVVRALPGAALVPGAAMILRSQELPTTGLRALARQSAGKSLRRAVGAVVDAATIHSTVVRAAETRVAAGAPTWVYDFRWSEGRGAVHCADLPFFWSVPEAANVRAYLGADAPPGLVDAMHRSWVDFVRSGDPGSPPYAPPGRRVQVWDEPPAVVEDGLADVRAVWWPAGGS
# Substrate: pNPB
# Assay: Proxy for plastic degradation [Absorbance @ 405nm]
protein,measurement,setting,value
B1,Proxy for plastic degradation,pH 5,10.3 U/mg
same,Proxy for plastic degradation,pH 5.5,15.4 U/mg
same,Proxy for plastic degradation,pH 6,41.1 U/mg
same,Proxy for plastic degradation,pH 6.5,61.7 U/mg
same,Proxy for plastic degradation,pH 7,72 U/mg
same,Proxy for plastic degradation,pH 7.5,77.1 U/mg
same,Proxy for plastic degradation,"pH 8, 10 °C",36 U/mg
same,Proxy for plastic degradation,"pH 8, 20 °C",46.3 U/mg
same,Proxy for plastic degradation,"pH 8, 25 °C",77.1 U/mg
same,Proxy for plastic degradation,"pH 8, 30 °C",92.6 U/mg
same,Proxy for plastic degradation,"pH 8, 37 °C",103 U/mg
same,Proxy for plastic degradation,"pH 8, 40 °C",84.9 U/mg
same,Proxy for plastic degradation,"pH 8, 50 °C",59.7 U/mg
same,Proxy for plastic degradation,"pH 8, 60 °C",20.6 U/mg
same,Proxy for plastic degradation,"pH 8, 70 °C",10.3 U/mg
same,Proxy for plastic degradation,pH 8.5,92.6 U/mg
same,Proxy for plastic degradation,pH 9,87.4 U/mg
